Drawing on patent US7300651, this text covers inhibition for 1 substance.

The target of this experiment is anti-idiotype antibody 3H1. In words: Ab1-Ab2 binding inhibition assays; competitor 8019.
anti-idiotype antibody 3H1, sequence (VL, as listed by the source, chain 1 of 2): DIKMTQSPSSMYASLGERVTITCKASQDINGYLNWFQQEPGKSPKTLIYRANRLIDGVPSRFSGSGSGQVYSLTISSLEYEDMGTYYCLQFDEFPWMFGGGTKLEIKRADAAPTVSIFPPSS
anti-idiotype antibody 3H1, sequence (VH, as listed by the source, chain 2 of 2): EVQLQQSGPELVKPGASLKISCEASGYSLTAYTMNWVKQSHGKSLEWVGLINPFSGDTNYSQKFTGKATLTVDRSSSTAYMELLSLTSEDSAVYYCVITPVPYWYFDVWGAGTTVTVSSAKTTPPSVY

For control normal serum pool (antibody), the inhibition – broadly, the relative decrease from the control value, in per cent – lay within 10 to 15%.
